Measured values published in patent US20240317872A1 (WUXI BIOLOGICS IRELAND, published 2024).

B1: T8311-U14T2.G25R-1.uIgG1 (bispecific antibody)
heavy: not shown
light 1: SYELTQPPSVSVSPGQTASITCSGSELPKRYAYWYQQKPGQSIVRVIYKDSERPSGISERFSGSSSGNTATLTISGTQAMDEADYYCSSTYGDRKLPIFGGGTKLTVLGQPKAAPSVTLFPPSSEELQANKATLVCLISDFYPGAVTVAWKADSSPVKAGVETTTPSKQSNNKYAASSYLSLTPEQWKSHKSYSCQVTHEGSTVEKTVAPTECS
light 2: SYVLTQPPSVSVAPGQTARMTCGGDNIGIKIVHWYQQKAGQAPVLVVYDDNDRPSGIPDRFSGSNSGNTATLTISRVAAGDEADYYCQVWDRRSDHVVFGGGTKLTVLPDIQNPDPAVYQLRDSKSSDKSVCLFTDFDSQTQVSQSKDSDVYITDKCVLDMRSMDFKSNSAVAWSQKSDFACANAFQNSIIPEDTFFPSPESS
notes: Symmetric 2+2 format G25R, human IgG1 Fc; PD-L1 x 4-1BB; also called T8311-1
B2: T8311-U14T2.G25R-47.uIgG1 (bispecific antibody)
heavy: not shown
light 1: SYELTQPPSVSVSPGQTASITCSGSELPKRYAYWYQQKPGQSIVRVIYKDSERPSGISERFSGSSSGNTATLTISGTQAMDEADYYCSSTYGDRKLPIFGGGTKLTVLGQPKAAPSVTLFPPSSEELQANKATLVCLISDFYPGAVTVAWKADSSPVKAGVETTTPSKQSNNKYAASSYLSLTPEQWKSHKSYSCQVTHEGSTVEKTVAPTECS
light 2: SYVLTQPPSVSVAPGQTARMTCGGDNIGIKIVHWYQQKAGQAPVLVVYDDNDRPSGIPDRFSGSNSGNTATLTISRVAAGDEADYYCQVWDRRSDHVVFGGGTKLTVLPDIQNPDPAVYQLRDSKSSDKSVCLFTDFDSQTQVCQSKDSDVYITDKCVLDMRSMDFKSNSAVAWSQKSDFACANAFQCSIIPEDTFFPS
notes: also called T8311-47
B3: T8311-U14T2.G25R-52.uIgG1 (bispecific antibody)
heavy: not shown
light 1: SYELTQPPSVSVSPGQTASITCSGSELPKRYAYWYQQKPGQSIVRVIYKDSERPSGISERFSGSSSGNTATLTISGTQAMDEADYYCSSTYGDRKLPIFGGGTKLTVLGQPKAAPSVTLFPPSSEELQANKATLVCLISDFYPGAVTVAWKADSSPVKAGVETTTPSKQSNNKYAASSYLSLTPEQWKSHKSYSCQVTHEGSTVEKTVAPTECS
light 2: SYVLTQPPSVSVAPGQTARMTCGGDNIGIKIVHWYQQKAGQAPVLVVYDDNDRPSGIPDRFSGSNSGNTATLTISRVAAGDEADYYCQVWDRRSDHVVFGGGTKLTVLPDIQNPDPAVYQLRDSKSSDKSVCLFTDFDSQTQVCQSKDSDVYITDKCVLDMRSMDFKSNSAVAWSQKSDFACANAFQNCIIPEDTFFPS
notes: also called T8311-52
B4: T8311-U14T2.G25R-56.uIgG1 (bispecific antibody)
heavy: not shown
light 1: SYELTQPPSVSVSPGQTASITCSGSELPKRYAYWYQQKPGQSIVRVIYKDSERPSGISERFSGSSSGNTATLTISGTQAMDEADYYCSSTYGDRKLPIFGGGTKLTVLGQPKAAPSVTLFPPSSEELQANKATLVCLISDFYPGAVTVAWKADSSPVKAGVETTTPSKQSNNKYAASSYLSLTPEQWKSHKSYSCQVTHEGSTVEKTVAPTECS
light 2: SYVLTQPPSVSVAPGQTARMTCGGDNIGIKIVHWYQQKAGQAPVLVVYDDNDRPSGIPDRFSGSNSGNTATLTISRVAAGDEADYYCQVWDRRSDHVVFGGGTKLTVLPDIQNPDPAVYQLRDSKSSDKSVCLFTDFDSQCQVSQSKDSDVYITDKCVLDMRSMDFKSNSAVAWSQKSDFACANAFQNSIICEDTFFPS
notes: also called T8311-56
B5: T8311-U14T2.G25R-50.uIgG1 (bispecific antibody)
heavy: not shown
light 1: SYELTQPPSVSVSPGQTASITCSGSELPKRYAYWYQQKPGQSIVRVIYKDSERPSGISERFSGSSSGNTATLTISGTQAMDEADYYCSSTYGDRKLPIFGGGTKLTVLGQPKAAPSVTLFPPSSEELQANKATLVCLISDFYPGAVTVAWKADSSPVKAGVETTTPSKQSNNKYAASSYLSLTPEQWKSHKSYSCQVTHEGSTVEKTVAPTECS
light 2: SYVLTQPPSVSVAPGQTARMTCGGDNIGIKIVHWYQQKAGQAPVLVVYDDNDRPSGIPDRFSGSNSGNTATLTISRVAAGDEADYYCQVWDRRSDHVVFGGGTKLTVLPDIQNPDPAVYQLRDSKSSDKSVCLFTDFDSQTCVSQSKDSDVYITDKCVLDMRSMDFKSNSAVAWSQKSDFACANAFQNCIIPEDTFFPS
notes: also called T8311-50
B6: T8311-U14T2.G25R-51.uIgG1 (bispecific antibody)
heavy: not shown
light 1: SYELTQPPSVSVSPGQTASITCSGSELPKRYAYWYQQKPGQSIVRVIYKDSERPSGISERFSGSSSGNTATLTISGTQAMDEADYYCSSTYGDRKLPIFGGGTKLTVLGQPKAAPSVTLFPPSSEELQANKATLVCLISDFYPGAVTVAWKADSSPVKAGVETTTPSKQSNNKYAASSYLSLTPEQWKSHKSYSCQVTHEGSTVEKTVAPTECS
light 2: SYVLTQPPSVSVAPGQTARMTCGGDNIGIKIVHWYQQKAGQAPVLVVYDDNDRPSGIPDRFSGSNSGNTATLTISRVAAGDEADYYCQVWDRRSDHVVFGGGTKLTVLPDIQNPDPAVYQLRDSKSSDKSVCLFTDFDSQTQCSQSKDSDVYITDKCVLDMRSMDFKSNSAVAWSQKSDFACANAFQNCIIPEDTFFPS
notes: also called T8311-51
B7: T8311-U14T2.G25R-61.uIgG1 (bispecific antibody)
heavy: not shown
light 1: SYELTQPPSVSVSPGQTASITCSGSELPKRYAYWYQQKPGQSIVRVIYKDSERPSGISERFSGSSSGNTATLTISGTQAMDEADYYCSSTYGDRKLPIFGGGTKLTVLGQPKAAPSVTLFPPSSEELQANKATLVCLISDFYPGAVTVAWKADSSPVKAGVETTTPSKQSNNKYAASSYLSLTPEQWKSHKSYSCQVTHEGSTVEKTVAPTECS
light 2: SYVLTQPPSVSVAPGQTARMTCGGDNIGIKIVHWYQQKAGQAPVLVVYDDNDRPSGIPDRFSGSNSGNTATLTISRVAAGDEADYYCQVWDRRSDHVVFGGGTKLTVLPDIQNPDPAVYQLRDSKSSDKSVCLFTDFDSQTQVSQSKDSDVYITDKCVLDMRSMDFKSNSAVAWSQKSDFACANAFQNSIIPEDTFFCS
notes: also called T8311-61; Design-61
B8: T8311-U14T2.G25R-48.uIgG1 (bispecific antibody)
heavy: not shown
light 1: SYELTQPPSVSVSPGQTASITCSGSELPKRYAYWYQQKPGQSIVRVIYKDSERPSGISERFSGSSSGNTATLTISGTQAMDEADYYCSSTYGDRKLPIFGGGTKLTVLGQPKAAPSVTLFPPSSEELQANKATLVCLISDFYPGAVTVAWKADSSPVKAGVETTTPSKQSNNKYAASSYLSLTPEQWKSHKSYSCQVTHEGSTVEKTVAPTECS
light 2: SYVLTQPPSVSVAPGQTARMTCGGDNIGIKIVHWYQQKAGQAPVLVVYDDNDRPSGIPDRFSGSNSGNTATLTISRVAAGDEADYYCQVWDRRSDHVVFGGGTKLTVLPDIQNPDPAVYQLRDSKSSDKSVCLFTDFDSQTQVSQCKDSDVYITDKCVLDMRSMDFKSNSAVAWSQKSDFACANAFQCSIIPEDTFFPS
notes: also called T8311-48
B9: T8311-U14T2.G25R-49.uIgG1 (bispecific antibody)
heavy: not shown
light 1: SYELTQPPSVSVSPGQTASITCSGSELPKRYAYWYQQKPGQSIVRVIYKDSERPSGISERFSGSSSGNTATLTISGTQAMDEADYYCSSTYGDRKLPIFGGGTKLTVLGQPKAAPSVTLFPPSSEELQANKATLVCLISDFYPGAVTVAWKADSSPVKAGVETTTPSKQSNNKYAASSYLSLTPEQWKSHKSYSCQVTHEGSTVEKTVAPTECS
light 2: SYVLTQPPSVSVAPGQTARMTCGGDNIGIKIVHWYQQKAGQAPVLVVYDDNDRPSGIPDRFSGSNSGNTATLTISRVAAGDEADYYCQVWDRRSDHVVFGGGTKLTVLPDIQNPDPAVYQLRDSKSSDKSVCLFTDFDSQTQVSQSCDSDVYITDKCVLDMRSMDFKSNSAVAWSQKSDFACANAFQCSIIPEDTFFPS
notes: also called T8311-49
B10: T8311-U14T2.G25R-53.uIgG1 (bispecific antibody)
heavy: not shown
light 1: SYELTQPPSVSVSPGQTASITCSGSELPKRYAYWYQQKPGQSIVRVIYKDSERPSGISERFSGSSSGNTATLTISGTQAMDEADYYCSSTYGDRKLPIFGGGTKLTVLGQPKAAPSVTLFPPSSEELQANKATLVCLISDFYPGAVTVAWKADSSPVKAGVETTTPSKQSNNKYAASSYLSLTPEQWKSHKSYSCQVTHEGSTVEKTVAPTECS
light 2: SYVLTQPPSVSVAPGQTARMTCGGDNIGIKIVHWYQQKAGQAPVLVVYDDNDRPSGIPDRFSGSNSGNTATLTISRVAAGDEADYYCQVWDRRSDHVVFGGGTKLTVLPDIQNPDPAVYQLRDSKSSDKSVCLFTDFDSQTCVSQSKDSDVYITDKCVLDMRSMDFKSNSAVAWSQKSDFACANAFQNSCIPEDTFFPS
notes: also called T8311-53
B11: T8311-U14T2.G25R-59.uIgG1 (bispecific antibody)
heavy: not shown
light 1: SYELTQPPSVSVSPGQTASITCSGSELPKRYAYWYQQKPGQSIVRVIYKDSERPSGISERFSGSSSGNTATLTISGTQAMDEADYYCSSTYGDRKLPIFGGGTKLTVLGQPKAAPSVTLFPPSSEELQANKATLVCLISDFYPGAVTVAWKADSSPVKAGVETTTPSKQSNNKYAASSYLSLTPEQWKSHKSYSCQVTHEGSTVEKTVAPTECS
light 2: SYVLTQPPSVSVAPGQTARMTCGGDNIGIKIVHWYQQKAGQAPVLVVYDDNDRPSGIPDRFSGSNSGNTATLTISRVAAGDEADYYCQVWDRRSDHVVFGGGTKLTVLPDIQNPDPCVYQLRDSKSSDKSVCLFTDFDSQTQVSQSKDSDVYITDKCVLDMRSMDFKSNSAVAWSQKSDFACANAFQNSIIPEDTCFPS
notes: also called T8311-59
B12: T8311-U14T2.G25R-57.uIgG1 (bispecific antibody)
heavy: not shown
light 1: SYELTQPPSVSVSPGQTASITCSGSELPKRYAYWYQQKPGQSIVRVIYKDSERPSGISERFSGSSSGNTATLTISGTQAMDEADYYCSSTYGDRKLPIFGGGTKLTVLGQPKAAPSVTLFPPSSEELQANKATLVCLISDFYPGAVTVAWKADSSPVKAGVETTTPSKQSNNKYAASSYLSLTPEQWKSHKSYSCQVTHEGSTVEKTVAPTECS
light 2: SYVLTQPPSVSVAPGQTARMTCGGDNIGIKIVHWYQQKAGQAPVLVVYDDNDRPSGIPDRFSGSNSGNTATLTISRVAAGDEADYYCQVWDRRSDHVVFGGGTKLTVLPDIQNPDCAVYQLRDSKSSDKSVCLFTDFDSQTQVSQSKDSDVYITDKCVLDMRSMDFKSNSAVAWSQKSDFACANAFQNSIIPECTFFPS
notes: also called T8311-57; design 57
B13: T8311-U14T2.G25R-58.uIgG1 (bispecific antibody)
heavy: not shown
light 1: SYELTQPPSVSVSPGQTASITCSGSELPKRYAYWYQQKPGQSIVRVIYKDSERPSGISERFSGSSSGNTATLTISGTQAMDEADYYCSSTYGDRKLPIFGGGTKLTVLGQPKAAPSVTLFPPSSEELQANKATLVCLISDFYPGAVTVAWKADSSPVKAGVETTTPSKQSNNKYAASSYLSLTPEQWKSHKSYSCQVTHEGSTVEKTVAPTECS
light 2: SYVLTQPPSVSVAPGQTARMTCGGDNIGIKIVHWYQQKAGQAPVLVVYDDNDRPSGIPDRFSGSNSGNTATLTISRVAAGDEADYYCQVWDRRSDHVVFGGGTKLTVLPDIQNPDCAVYQLRDSKSSDKSVCLFTDFDSQTQVSQSKDSDVYITDKCVLDMRSMDFKSNSAVAWSQKSDFACANAFQNSIIPEDCFFPS
notes: also called T8311-58

The binders below were run against T1, Human PD-L1 (human, UniProt Q9NZQ7 19-290) (assay: flow cytometry on CHO-K1 cells expressing human PD-L1).
T1 construct: whole, on cells; also called target-A
T1 sequence (Q9NZQ7 19-290): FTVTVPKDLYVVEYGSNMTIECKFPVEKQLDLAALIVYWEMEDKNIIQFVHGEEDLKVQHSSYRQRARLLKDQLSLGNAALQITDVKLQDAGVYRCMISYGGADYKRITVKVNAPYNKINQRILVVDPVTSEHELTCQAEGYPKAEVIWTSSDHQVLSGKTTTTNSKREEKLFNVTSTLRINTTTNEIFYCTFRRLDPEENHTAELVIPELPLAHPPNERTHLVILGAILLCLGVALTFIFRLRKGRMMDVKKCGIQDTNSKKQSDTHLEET
Description: Human PD-L1-expressing cells W315-CHOK1.hPro1.C11 (×10^5 cells/well) and 4-1BB-expressing cells WBP342-CHO-K1.hPro1.C1 were incubated with various concentrations of testing antibodies at 4° C. for 1 hour. […] The cells were then washed and resuspended in DPBS with 1% BSA. MFI of the cells was measured by a flow cytometer and analyzed by FlowJo.
As shown in FIG. 7 and Table 7, compared to the reference molecule, the T8311 variants kept the target binding ability very well.
For B1, the EC50 was 0.184 nM and the “Top (MFI)” value was 8330 MFI.
For B2, the EC50 was 0.186 nM and the “Top (MFI)” value was 8110 MFI.
In the case of B3, the EC50 is reported as 0.187 nM and the “Top (MFI)” value is reported as 8060 MFI.
With B4 the EC50 was 0.192 nM and the “Top (MFI)” value was 8240 MFI.
For B5, the EC50 was 0.256 nM and the “Top (MFI)” value was 8130 MFI.
In the case of B6, the EC50 is reported as 0.213 nM and the “Top (MFI)” value is reported as 8120 MFI.
B7 was tested, and the EC50 was 0.179 nM and the “Top (MFI)” value was 7880 MFI.
For B8, the EC50 was 0.205 nM and the “Top (MFI)” value was 8120 MFI.
In the case of B9, the EC50 is reported as 0.153 nM and the “Top (MFI)” value is reported as 8130 MFI.
For B10, the EC50 was 0.22 nM and the “Top (MFI)” value was 8150 MFI.
In the case of B11, the EC50 is reported as 0.215 nM and the “Top (MFI)” value is reported as 7860 MFI.
B12 was tested, and the EC50 was 0.177 nM and the “Top (MFI)” value was 8150 MFI.
In the case of B13, the EC50 is reported as 0.19 nM and the “Top (MFI)” value is reported as 7990 MFI.
